Measurements from patent publication US20250145690A1 (US Dept. of Health and Human Services, published 2025).

Experiments:
Assay in all cases: bead flow cytometry, AUC minus CD4
[1] = target: SARS-CoV-2 spike N-terminal domain (NTD), recombinant (SARS-CoV-2, UniProt P0DTC2 14-305)
[2] = target: T1, HCoV-HKU1 spike protein (Sino Biological 40606-V08B) (HCoV-HKU1, UniProt Q0ZME7 13-1295)
T1 sequence: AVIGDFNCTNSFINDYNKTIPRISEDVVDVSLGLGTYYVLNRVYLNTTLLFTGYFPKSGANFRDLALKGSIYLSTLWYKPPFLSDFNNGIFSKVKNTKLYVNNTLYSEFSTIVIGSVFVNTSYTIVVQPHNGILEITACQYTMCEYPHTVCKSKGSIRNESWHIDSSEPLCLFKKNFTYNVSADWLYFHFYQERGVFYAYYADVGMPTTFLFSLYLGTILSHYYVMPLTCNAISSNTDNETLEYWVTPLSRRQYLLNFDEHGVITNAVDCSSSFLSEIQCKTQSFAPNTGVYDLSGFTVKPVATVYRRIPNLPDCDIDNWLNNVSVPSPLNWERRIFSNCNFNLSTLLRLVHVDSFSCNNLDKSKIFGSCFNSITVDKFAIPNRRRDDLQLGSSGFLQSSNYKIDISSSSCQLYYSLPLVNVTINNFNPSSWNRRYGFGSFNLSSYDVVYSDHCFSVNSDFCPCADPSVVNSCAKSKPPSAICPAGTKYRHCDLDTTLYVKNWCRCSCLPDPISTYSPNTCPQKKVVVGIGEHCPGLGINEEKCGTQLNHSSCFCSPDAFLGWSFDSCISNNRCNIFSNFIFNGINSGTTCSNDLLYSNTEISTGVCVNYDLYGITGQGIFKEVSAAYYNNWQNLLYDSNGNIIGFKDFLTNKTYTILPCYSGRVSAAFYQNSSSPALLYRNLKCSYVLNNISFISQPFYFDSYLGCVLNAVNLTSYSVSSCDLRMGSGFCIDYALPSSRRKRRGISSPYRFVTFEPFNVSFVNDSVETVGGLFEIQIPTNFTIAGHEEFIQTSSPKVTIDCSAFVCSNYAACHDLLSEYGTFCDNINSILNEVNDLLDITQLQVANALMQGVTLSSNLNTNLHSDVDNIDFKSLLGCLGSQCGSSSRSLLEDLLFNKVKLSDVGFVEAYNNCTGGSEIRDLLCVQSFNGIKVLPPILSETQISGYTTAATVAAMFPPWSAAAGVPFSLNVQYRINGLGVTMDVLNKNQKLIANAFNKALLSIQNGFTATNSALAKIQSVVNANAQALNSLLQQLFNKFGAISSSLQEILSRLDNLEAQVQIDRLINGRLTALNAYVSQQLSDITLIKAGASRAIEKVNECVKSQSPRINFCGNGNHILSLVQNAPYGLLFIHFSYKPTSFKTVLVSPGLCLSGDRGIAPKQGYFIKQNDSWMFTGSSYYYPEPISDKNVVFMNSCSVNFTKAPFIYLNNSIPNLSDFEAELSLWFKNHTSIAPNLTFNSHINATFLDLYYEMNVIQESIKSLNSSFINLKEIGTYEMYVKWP

[3] = target: T2, HCoV-NL63 spike protein (Sino Biological 40604-V08B) (HCoV-NL63, UniProt Q6Q1S2 19-1296)
T2 sequence: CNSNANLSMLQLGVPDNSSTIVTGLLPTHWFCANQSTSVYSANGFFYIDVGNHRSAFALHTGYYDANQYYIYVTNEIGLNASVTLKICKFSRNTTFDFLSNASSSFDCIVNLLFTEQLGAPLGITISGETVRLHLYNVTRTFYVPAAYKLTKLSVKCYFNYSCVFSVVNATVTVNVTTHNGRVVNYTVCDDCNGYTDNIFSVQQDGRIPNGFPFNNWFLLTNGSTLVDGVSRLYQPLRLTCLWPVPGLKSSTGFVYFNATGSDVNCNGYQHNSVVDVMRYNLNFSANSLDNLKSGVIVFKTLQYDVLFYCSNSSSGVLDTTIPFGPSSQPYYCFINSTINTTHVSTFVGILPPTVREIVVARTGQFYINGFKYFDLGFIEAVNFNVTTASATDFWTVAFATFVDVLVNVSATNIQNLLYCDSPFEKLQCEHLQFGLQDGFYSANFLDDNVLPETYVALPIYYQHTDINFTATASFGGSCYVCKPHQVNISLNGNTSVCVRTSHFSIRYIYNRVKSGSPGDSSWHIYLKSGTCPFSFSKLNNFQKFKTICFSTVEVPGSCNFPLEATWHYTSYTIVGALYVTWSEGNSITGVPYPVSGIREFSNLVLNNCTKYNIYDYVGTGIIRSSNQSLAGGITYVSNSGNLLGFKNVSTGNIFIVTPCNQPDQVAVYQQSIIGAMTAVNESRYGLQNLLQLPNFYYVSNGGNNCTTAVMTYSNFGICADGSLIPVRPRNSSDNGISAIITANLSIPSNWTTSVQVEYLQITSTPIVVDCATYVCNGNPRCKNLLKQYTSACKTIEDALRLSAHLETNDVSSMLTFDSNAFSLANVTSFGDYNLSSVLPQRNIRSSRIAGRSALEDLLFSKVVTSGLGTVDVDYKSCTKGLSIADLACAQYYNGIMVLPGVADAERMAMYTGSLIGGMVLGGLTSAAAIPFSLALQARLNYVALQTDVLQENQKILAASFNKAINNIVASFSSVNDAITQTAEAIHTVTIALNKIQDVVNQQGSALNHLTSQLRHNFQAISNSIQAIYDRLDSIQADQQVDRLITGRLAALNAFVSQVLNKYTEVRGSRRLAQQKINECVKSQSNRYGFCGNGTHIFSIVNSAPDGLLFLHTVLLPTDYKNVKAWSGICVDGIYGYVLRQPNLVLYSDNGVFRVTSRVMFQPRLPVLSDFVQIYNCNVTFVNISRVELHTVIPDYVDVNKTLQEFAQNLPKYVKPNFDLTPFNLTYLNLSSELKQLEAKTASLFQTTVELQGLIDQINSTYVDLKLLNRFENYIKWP

[4] = target: T3, HCoV-229E spike protein (Sino Biological 40605-V08B) (HCoV-229E, UniProt P15423 16-1115)
T3 sequence: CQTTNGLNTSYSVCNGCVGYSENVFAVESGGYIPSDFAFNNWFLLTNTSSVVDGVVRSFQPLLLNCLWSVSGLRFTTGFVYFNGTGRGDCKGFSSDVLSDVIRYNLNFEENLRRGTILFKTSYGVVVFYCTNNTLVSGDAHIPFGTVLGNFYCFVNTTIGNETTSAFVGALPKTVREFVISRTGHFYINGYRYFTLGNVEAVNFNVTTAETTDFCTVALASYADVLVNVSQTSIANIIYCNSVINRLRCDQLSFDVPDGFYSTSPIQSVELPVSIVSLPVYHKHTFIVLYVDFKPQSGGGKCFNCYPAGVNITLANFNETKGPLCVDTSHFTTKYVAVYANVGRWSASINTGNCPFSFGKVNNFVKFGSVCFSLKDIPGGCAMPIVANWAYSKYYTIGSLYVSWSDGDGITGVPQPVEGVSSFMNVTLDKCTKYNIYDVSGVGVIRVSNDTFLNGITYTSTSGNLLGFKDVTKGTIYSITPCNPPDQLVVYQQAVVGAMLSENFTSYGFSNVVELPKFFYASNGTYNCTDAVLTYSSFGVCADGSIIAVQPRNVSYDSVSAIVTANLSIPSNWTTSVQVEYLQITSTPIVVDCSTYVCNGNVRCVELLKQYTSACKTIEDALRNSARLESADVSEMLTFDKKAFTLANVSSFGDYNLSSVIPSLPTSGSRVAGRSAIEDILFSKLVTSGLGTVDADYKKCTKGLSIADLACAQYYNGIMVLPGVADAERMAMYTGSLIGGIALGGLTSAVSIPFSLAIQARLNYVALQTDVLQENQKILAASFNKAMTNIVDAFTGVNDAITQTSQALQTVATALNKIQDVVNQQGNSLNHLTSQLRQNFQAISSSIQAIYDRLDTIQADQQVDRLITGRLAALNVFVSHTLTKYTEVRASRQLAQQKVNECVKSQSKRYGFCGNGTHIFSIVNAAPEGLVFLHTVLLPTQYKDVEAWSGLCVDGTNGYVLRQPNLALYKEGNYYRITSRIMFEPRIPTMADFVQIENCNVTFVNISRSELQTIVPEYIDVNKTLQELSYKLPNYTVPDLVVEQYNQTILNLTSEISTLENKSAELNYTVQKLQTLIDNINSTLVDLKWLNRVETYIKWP

Measured: binding result

B1: COV44-26 (antibody, V domains shown)
VH: QVQLVQSGAEVKKPGASVKVSCKASGYTFSNFYMNWVRQAPGQGLEWVGLISPSAGYTAYAQMFQGRVTMTRDTSTSTVYMELSSLRSEDTAVYYCARVAVAGPNDYWGQGTLVTVSS
VL: EIVLTQSPGTLSLSPGERATLSCRASQSISSSYLAWYQQKPGQAPRLVIFAASTRATGIPDRFSGSGSGTDFTLTITRLEPEDFALYYCQHYRSSPPLWTFGQGTKVEIR
no binding (tested: 200 µg/mL): all assays above
